Laboratory results reported in article PMC6817665 (iScience, 2019).
Positions count from the first letter of the chain named. Names and notes keep the numbering of the source. Values joined by “and” are separate entries in the source; they are usually repeats but may differ in a detail not shown here. Equal entries are not always repeated. Blank lines part the entries; values can stand above or below the binder they belong to.

How the values were obtained:
M1 (linear) GST-Ub2 = M1 (linear) GST-Ub2 (UniProt P0CG48); assay: BLI
SEC-MALS = molecular target: the molecule itself; assay: SEC-MALS

Kd (M1 (linear) GST-Ub2): 1600 nM
B1: Strep-tag II CEP55 ZF (StrepII-tag version of CEP55 ZF peptide, residues 435–464) (peptide)
chain: ESLVECPKCNIQYPATEHRDLLVHVEYCSK

fold reduction of binding affinity against WT (M1 (linear) GST-Ub2): 26 fold
B2: StrepII-tag version of CEP55 ZF mutant E460A (peptide)
chain: B1 chain with E26A

B3: CEP55 His-NOA (His-tag version of the human CEP55 NOA fragment, residues 304–396) (domain or fragment)
chain: IQKLREENDIARGKLEEEKKRSEELLSQVQFLYTSLLKQQEEQTRVALLEQQMQACTLDFENEKLDRQHVQHQLHVILKELRKARNQITQLES
fold weaker dimerization affinity than NEMO NOA (SEC-MALS): 6 fold
stoichiometry N (SEC-MALS): 2 and 6
